Results taken from patent US20120034212A1 (AstraZeneca / MedImmune, published 2012).
Read-outs that look alike come from different tables or passages of the source.

B1: IL-6 antibody B (antibody, V domains shown)
VH: QSVEESGGRLVTPGTPLTLTCTVSGFSLSAYDMYWVRQAPGKGLEWIGITYGSGKTYYARWAKGRFTISKTSTTVALKITSPTTEDTATYFCARDSGYPGGSSAYNLWGQGTLVTVSS
VL: AAVLTQTPSAVSAAVGGTVTISCQSSQSVTVNNDLAWYQQRPGQPPKLLIYRASNLASRVPSRFSGSGSGTQFTLTISGVQCDDAATYYCLGGYDDDASNAFGGGTEVVVKG
B2: Antibody 18 (antibody, V domains shown)
VH: EVQLVESGGGLVQPGGSLRLSCAASGFTISSNYMIWVRQAPGKGLEWVSDLYYYAGDTYYADSVKGRFTMSRDISKNTVYLQMNSLRAEDTAVYYCARWADDHPPWIDLWGRGTLVTVSS
VL: DIQMTQSPSTLSASVGDRVTITCRASQGISSWLAWYQQKPGKAPKVLIYKASTLESGVPSRFSGSGSGTEFTLTISSLQPDDFATYYCQQSWLGGSFGQGTKLEIK
notes: Human anti-IL-6 IgG1 with a wild type Fc region; It is the parent of Antibody 18E; also called Ab 18
B3: IL-6 antibody A (antibody, V domains shown)
VH: QEQLVESGGGLVQPEGSLTLTCIASGWSFSSSHYMCWVRQAPGKGLEWIGCIYTGSGMTYYASWAKGRFTISKTSSTTVTLQMTSLTAADTATYFCARKIGGTDDYGDSLYFSLWGQGTLVTVSS
VL: AQVLTQTPSPVSAAVGGTVTINCQASQSVYNNSKLAWYQQKPGQPPKLLIYKASSLASGVSSRFKGSGSGTQFTLTISGVQCDDAATYYCQHEFSCSSADCVAFGGGTEVVVKG
B4: Antibody 18E (antibody, human IgG1, kappa)
heavy: EVQLVESGGGLVQPGGSLRLSCAASGFTISSNYMIWVRQAPGKGLEWVSDLYYYAGDTYYADSVKGRFTMSRDISKNTVYLQMNSLRAEDTAVYYCARWADDHPPWIDLWGRGTLVTVSSASTKGPSVFPLAPSSKSTSGGTAALGCLVKDYFPEPVTVSWNSGALTSGVHTFPAVLQSSGLYSLSSVVTVPSSSLGTQTYICNVNHKPSNTKVDKRVEPKSCDKTHTCPPCPAPELLGGPSVFLFPPKPKDTLYITREPEVTCVVVDVSHEDPEVKFNWYVDGVEVHNAKTKPREEQYNSTYRVVSVLTVLHQDWLNGKEYKCKVSNKALPAPIEKTISKAKGQPREPQVYTLPPSREEMTKNQVSLTCLVKGFYPSDIAVEWESNGQPENNYKTTPPVLDSDGSFFLYSKLTVDKSRWQQGNVFSCSVMHEALHNHYTQKSLSLSPGK
light: DIQMTQSPSTLSASVGDRVTITCRASQGISSWLAWYQQKPGKAPKVLIYKASTLESGVPSRFSGSGSGTEFTLTISSLQPDDFATYYCQQSWLGGSFGQGTKLEIKRTVAAPSVFIFPPSDEQLKSGTASVVCLLNNFYPREAKVQWKVDNALQSGNSQESVTEQDSKDSTYSLSSTLTLSKADYEKHKVYACEVTHQGLSSPVTKSFNRGEC
notes: Antibody 18 with the M252Y, S254T and T256E substitutions (EU index) in the IgG1 Fc region; Expressed in CHO-K1 cells; also called Ab 18E

Columns and labels:
[1] = molecular target: T1, recombinant human IL-6 (human, UniProt P05231 30-212); assay: cell-based or functional assay
[2] = molecular target: T1, recombinant human IL-6; assay: ELISA, E. coli derived recombinant human IL-6 as capture reagent; drawn table 'Avg EC50 (pM)', n = 4
[3] = molecular target: T2, endogenous human IL-6 produced by human synovial fibroblasts (human, UniProt P05231 30-212); assay: cell-based or functional assay
[4] = molecular target: T1, recombinant human IL-6; assay: cell-based or functional assay; remark: listed apart in the source
[5] = molecular target: endogenous human IL-6 produced by human synovial fibroblasts (human) (UniProt P05231); assay: cell-based or functional assay
Sequence of endogenous human IL-6 produced by human synovial fibroblasts (human) (P05231 30-212): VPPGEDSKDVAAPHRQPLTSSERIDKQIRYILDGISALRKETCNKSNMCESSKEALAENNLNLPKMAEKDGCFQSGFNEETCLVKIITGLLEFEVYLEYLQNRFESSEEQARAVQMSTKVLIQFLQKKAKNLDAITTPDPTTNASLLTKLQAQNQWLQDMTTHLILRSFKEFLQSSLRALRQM

[6] = molecular target: endogenous human IL-6 produced by human synovial fibroblasts (human) (UniProt P05231)
[7] = molecular target: T1, recombinant human IL-6; assay: ELISA, E. coli expressed rhuIL-6 as capture reagent
Method: ELISA assays were performed according to standard protocols.

[8] = molecular target: T1, recombinant human IL-6; assay: affinity estimated from the TF-1 Cell Proliferation Assay (cell-based, not a direct binding assay); Example 1 summarises WO 2008/065378; estimated from the TF-1 Cell Proliferation Assay, not BIAcore
[9] = molecular target: T3, human FcRn (human, UniProt P55899 24-297; P61769 21-119, limits assumed); assay: BIAcore, pH 6
T3 construct: also called huFcRn
T3 sequence (P55899 24-297 limits assumed, chain 1 of 2): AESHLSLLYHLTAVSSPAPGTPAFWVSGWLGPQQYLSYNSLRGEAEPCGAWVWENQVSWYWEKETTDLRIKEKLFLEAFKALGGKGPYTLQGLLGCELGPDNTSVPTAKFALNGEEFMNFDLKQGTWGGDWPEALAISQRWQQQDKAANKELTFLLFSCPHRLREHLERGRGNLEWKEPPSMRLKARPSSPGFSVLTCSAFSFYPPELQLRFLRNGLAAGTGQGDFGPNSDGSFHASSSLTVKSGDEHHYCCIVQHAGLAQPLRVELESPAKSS
T3 sequence (P61769 21-119 limits assumed, chain 2 of 2): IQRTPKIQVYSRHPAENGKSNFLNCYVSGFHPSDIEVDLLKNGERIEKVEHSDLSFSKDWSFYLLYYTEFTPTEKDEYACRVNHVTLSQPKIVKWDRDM

[10] = molecular target: T4, cynomolgus FcRn (cynomolgus, UniProt Q8SPV9 24-297; Q8SPW0 21-119, limits assumed); assay: BIAcore, pH 6
T4 construct: also called cynoFcRn; cyno FcRn
T4 sequence (Q8SPV9 24-297 limits assumed, chain 1 of 2): as the sequence (P55899 24-297 limits assumed, chain 1 of 2) above, with N39D, E44Q, G99S, S189G, S190N, L217M, S269T counted along it
T4 sequence (Q8SPW0 21-119 limits assumed, chain 2 of 2): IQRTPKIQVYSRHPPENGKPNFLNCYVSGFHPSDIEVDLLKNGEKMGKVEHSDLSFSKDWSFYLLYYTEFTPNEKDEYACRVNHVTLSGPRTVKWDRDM

[11] = molecular target: T1, recombinant human IL-6; assay: BIAcore; Example 1 summarises WO 2008/065378; BIAcore; bound at the assay's detection level
[12] = molecular target: T2, endogenous human IL-6 produced by human …; assay: cell-based or functional assay; remark: listed apart in the source

Binder | IC50, inhibition of IL-6 induced TF-1 cell proliferation [1] [nM] | EC50 [2] [nM] | IC50, inhibition of endogenous IL-6 induced VEGF release from human synovial fibroblasts [3] [nM] | IC50, inhibition of IL-6 induced TF-1 cell proliferation [4] [nM] | IC50, inhibition of endogenous IL-6 induced VEGF release from human synovial fibroblasts [5] [nM] | IC50, inhibition of endogenous IL-6 induced VEGF release from human synovial fibroblasts [6] [nM] | EC50 [7] [nM] | Kd [8] [nM] | Kd [9] [nM] | Kd [10] [nM] | Kd [11] [nM] | IC50, inhibition of endogenous IL-6 induced VEGF release from human synovial fibroblasts [12] [nM]
B1 | 0.0781 | 0.0141 | 2.2 | – | – | – | – | – | – | – | – | –
B2 | – | – | – | 0.0045 | 0.0013 | 1.3 | 0.0061 | 0.0004 | 2610 | 1160 | < 0.01 | –
B3 | 0.0059 | 0.0078 | 2.8 | – | – | – | – | – | – | – | – | –
B4 | – | – | 0.0012 | 0.0052 | – | – | 0.0065 | – | 226 | 365 | – | 0.0012
